{"source": "patent US11732249", "about": "(WASHINGTON UNIVERSITY, dated 2023)", "binders": {"B1": {"name": "Lamp1 (other, UniProt P11279 29-417, looked up)", "chain": "AMFMVKNGNGTACIMANFSAAFSVNYDTKSGPKNMTFDLPSDATVVLNRSSCGKENTSDPSLVIAFGRGHTLTLNFTRNATRYSVQLMSFVYNLSDTHLFPNASSKEIKTVESITDIRADIDKKYRCVSGTQVHMNNVTVTLHDATIQAYLSNSSFSRGETRCEQDRPSPTTAPPAPPSPSPSPVPKSPSVDKYNVSGTNGTCLLASMGLQLNLTYERKDNTTVTRLLNINPNKTSASGSCGAHLVTLELHSEGTTVLLFQFGMNASSSRFFLQGIQLNTILPDARDPAFKAANGSLRALQATVGNSYKCNAEEHVRVTKAFSVNIFKVWVQAFKVEGGQFGSVEECLLDENSMLIPIAVGGALAGLVLIVLIAYLVGRKRSHAGYQTI"}}, "molecular_target": "T1, soluble bovine cation-independent mannose 6-phosphate receptor (CI-MPR), covalently conjugated to Cyanogen … (bovine, UniProt P08169 45-2313, limits assumed, covalently conjugated to Cyanogen bromide-activated-Sepharose 4B)", "T1 construct": "also called immobilized CI-MPR", "T1 sequence (P08169 45-2313 limits assumed)": "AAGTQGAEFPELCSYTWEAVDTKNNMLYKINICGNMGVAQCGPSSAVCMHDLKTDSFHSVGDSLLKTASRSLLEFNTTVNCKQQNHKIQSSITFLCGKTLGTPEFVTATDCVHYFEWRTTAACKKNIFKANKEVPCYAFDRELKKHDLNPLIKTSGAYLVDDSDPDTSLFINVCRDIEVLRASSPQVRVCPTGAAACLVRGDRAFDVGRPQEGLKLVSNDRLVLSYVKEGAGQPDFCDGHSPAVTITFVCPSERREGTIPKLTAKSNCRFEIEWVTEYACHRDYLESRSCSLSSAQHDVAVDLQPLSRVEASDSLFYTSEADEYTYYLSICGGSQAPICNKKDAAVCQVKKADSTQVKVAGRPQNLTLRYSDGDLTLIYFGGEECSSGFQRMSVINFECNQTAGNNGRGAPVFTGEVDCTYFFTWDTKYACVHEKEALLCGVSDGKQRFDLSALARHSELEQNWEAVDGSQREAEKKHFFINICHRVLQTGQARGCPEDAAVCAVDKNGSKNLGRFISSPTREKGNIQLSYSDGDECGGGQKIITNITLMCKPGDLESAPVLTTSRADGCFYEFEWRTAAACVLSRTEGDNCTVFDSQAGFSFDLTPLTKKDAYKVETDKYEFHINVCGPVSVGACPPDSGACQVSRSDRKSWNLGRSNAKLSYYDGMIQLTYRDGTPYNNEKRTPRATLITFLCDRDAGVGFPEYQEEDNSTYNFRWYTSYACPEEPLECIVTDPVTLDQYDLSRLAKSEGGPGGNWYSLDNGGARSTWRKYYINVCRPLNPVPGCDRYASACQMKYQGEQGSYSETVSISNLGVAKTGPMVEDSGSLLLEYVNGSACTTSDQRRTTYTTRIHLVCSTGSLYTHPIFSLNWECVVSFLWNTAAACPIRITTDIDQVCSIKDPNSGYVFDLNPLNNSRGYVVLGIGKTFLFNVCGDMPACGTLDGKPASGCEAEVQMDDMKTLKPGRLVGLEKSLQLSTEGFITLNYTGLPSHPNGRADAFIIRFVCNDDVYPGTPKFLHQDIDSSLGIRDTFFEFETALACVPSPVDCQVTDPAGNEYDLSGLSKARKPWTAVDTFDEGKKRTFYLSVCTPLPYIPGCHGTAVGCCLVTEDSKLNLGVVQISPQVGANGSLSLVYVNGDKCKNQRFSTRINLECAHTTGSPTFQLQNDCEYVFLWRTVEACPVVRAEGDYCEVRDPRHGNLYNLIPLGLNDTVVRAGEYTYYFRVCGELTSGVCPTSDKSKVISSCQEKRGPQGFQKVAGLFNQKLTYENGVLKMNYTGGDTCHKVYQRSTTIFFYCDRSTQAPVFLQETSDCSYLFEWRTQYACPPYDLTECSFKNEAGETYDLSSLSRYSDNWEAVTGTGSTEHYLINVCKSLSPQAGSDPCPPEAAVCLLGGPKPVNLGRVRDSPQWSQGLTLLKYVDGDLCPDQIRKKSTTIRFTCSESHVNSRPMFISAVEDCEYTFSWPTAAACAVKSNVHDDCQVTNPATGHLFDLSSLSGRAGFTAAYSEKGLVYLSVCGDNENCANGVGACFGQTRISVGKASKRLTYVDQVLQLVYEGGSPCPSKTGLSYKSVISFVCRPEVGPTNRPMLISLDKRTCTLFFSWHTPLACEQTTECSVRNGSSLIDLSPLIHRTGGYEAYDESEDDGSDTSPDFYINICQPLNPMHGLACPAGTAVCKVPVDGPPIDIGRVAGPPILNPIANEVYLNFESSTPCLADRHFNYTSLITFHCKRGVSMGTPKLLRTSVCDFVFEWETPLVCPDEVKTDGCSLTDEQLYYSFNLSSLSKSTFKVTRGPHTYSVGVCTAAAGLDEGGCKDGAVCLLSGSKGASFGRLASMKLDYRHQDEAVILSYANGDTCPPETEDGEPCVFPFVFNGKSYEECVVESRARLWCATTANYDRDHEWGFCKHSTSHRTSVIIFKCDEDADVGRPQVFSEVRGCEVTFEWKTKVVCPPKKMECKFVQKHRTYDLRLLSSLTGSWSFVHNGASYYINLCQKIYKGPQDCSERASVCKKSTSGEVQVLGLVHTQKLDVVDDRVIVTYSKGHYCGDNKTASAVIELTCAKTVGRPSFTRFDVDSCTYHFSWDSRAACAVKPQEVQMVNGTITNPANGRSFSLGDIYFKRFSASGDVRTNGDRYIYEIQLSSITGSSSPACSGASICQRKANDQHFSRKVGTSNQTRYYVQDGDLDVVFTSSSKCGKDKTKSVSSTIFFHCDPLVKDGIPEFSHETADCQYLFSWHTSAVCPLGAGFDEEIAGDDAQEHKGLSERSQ", "experiment": "CI-MPR-affinity bead pull-down from lysates of GNPTAB-/- HeLa cells transfected with empty vector, WT α/β precursor or DS1 mutant; western blot (FIG. 2C)", "protocol": "(FIG. 2C) Western blot of GNPTAB^{-/-} HeLa cells co-transfected with the expression plasmids for the indicated proteins along with empty vector, WT α/β precursor or the DS1 mutant cDNA. Cell lysates were incubated with CI-MPR-affinity beads and the binding of the various proteins was determined by probing the blot with the following antibodies: Renin—anti-HA; NPC2, GP, Lamp1 and Lamp2 with antibodies generated against the native protein."}
{"binder": "B1", "values": [{"measurement": "binding result", "value": "no binding"}]}
